Consider one sequence from PMC6457538.

This data set deals with HoLaMa DNA polymerase (Klenow sub-fragment lacking the 3'-5' exonuclease domain) (UniProt P00582). Nature of the data set: intrinsic tryptophan fluorescence quenching titration. The settings on record: 500 nM enzyme; n = 1.24 ± 0.03 DNA per enzyme; no dNTP; Kd titration: 50 mM sodium phosphate pH 8.0, 50 mM NaCl, temperature not stated in the material; stopped-flow: 50 mM Tris-HCl pH 8.0, 0.5 mM EDTA, 10 mM MgCl2 ….
Sequence of UniProt P00582 (P00582 whole entry, the tested form may be a part): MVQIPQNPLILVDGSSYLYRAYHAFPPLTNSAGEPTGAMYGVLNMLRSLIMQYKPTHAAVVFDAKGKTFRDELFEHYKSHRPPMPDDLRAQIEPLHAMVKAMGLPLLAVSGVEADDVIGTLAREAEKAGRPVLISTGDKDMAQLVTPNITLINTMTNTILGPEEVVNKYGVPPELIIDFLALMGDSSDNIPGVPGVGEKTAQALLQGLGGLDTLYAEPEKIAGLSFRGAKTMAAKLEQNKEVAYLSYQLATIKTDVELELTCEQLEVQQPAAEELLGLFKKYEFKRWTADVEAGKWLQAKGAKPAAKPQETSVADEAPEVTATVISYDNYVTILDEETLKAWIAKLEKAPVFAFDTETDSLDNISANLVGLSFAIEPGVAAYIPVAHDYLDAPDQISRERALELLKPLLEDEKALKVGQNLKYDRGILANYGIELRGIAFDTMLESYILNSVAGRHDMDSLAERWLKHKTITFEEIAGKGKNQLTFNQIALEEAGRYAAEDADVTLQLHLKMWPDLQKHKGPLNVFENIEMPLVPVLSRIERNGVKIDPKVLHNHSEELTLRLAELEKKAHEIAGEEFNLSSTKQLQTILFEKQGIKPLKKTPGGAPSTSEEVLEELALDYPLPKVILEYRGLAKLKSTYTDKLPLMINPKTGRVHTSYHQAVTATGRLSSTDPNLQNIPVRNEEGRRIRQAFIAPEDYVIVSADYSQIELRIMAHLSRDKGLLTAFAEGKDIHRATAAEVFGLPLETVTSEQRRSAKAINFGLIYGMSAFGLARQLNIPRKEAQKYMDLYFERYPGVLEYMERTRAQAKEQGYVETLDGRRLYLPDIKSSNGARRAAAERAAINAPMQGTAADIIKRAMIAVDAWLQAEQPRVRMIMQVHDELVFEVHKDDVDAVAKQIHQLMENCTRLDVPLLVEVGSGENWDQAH

As usually defined, the Kd is the equilibrium constant for the complex coming apart. Turning to “AAAAAAAAAAAAAAAAAAAAAAAAAAAAAAAAGCGCGCGC / GCGCGCGCTTTTTTT [40mer polyA DNA (40mer template / 15mer primer)]”, the Kd is 35.1 nM.
